Data published in PMC9724678, “The Autophagy Receptor TAX1BP1 (T6BP) improves antigen presentation by MHC‐II molecules” (EMBO Reports, 2022).

Biological target: T1, GFP-T6BP (TAX1BP1 / TRAF6-binding protein fused to GFP) (UniProt Q86VP1 1-789)
T1 construct: plasmid a gift from F. Buss; it is written both GFP-T6BP and T6BP-GFP; also called T6BP-GFP; source: HeLa-CIITA, transfected, in lysate
Experiment: co-IP; GFP-T6BP or GFP alone from transfected HeLa-CIITA lysate on GFP-Trap beads, Western blot for CANX
Conditions: partners not purified

T1 sequence (Q86VP1 whole entry, the tested form may be a part): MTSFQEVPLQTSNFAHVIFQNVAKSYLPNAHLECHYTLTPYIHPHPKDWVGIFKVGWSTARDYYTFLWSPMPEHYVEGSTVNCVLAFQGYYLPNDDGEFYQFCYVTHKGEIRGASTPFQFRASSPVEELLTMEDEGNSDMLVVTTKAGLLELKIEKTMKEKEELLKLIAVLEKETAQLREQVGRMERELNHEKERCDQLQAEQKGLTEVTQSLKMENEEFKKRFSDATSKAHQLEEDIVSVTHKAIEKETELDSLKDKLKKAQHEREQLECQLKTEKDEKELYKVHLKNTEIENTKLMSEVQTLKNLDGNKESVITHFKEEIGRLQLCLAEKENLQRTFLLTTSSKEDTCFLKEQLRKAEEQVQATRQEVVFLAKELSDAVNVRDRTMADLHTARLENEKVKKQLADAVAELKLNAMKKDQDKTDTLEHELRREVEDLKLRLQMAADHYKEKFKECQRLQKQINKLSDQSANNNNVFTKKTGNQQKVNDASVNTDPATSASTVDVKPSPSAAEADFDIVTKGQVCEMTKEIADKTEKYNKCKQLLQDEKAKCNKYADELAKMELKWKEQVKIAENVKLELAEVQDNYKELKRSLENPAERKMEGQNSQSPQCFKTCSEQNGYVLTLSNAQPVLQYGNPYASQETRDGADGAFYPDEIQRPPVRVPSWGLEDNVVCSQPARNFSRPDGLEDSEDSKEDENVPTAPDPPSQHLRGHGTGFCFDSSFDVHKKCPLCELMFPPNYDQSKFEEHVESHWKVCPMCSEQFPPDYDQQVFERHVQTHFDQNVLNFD

B1: Calnexin (CANX), endogenous (natural protein, UniProt P27824 21-592, looked up)
chain: HDGHDDDVIDIEDDLDDVIEEVEDSKPDTTAPPSSPKVTYKAPVPTGEVYFADSFDRGTLSGWILSKAKKDDTDDEIAKYDGKWEVEEMKESKLPGDKGLVLMSRAKHHAISAKLNKPFLFDTKPLIVQYEVNFQNGIECGGAYVKLLSKTPELNLDQFHDKTPYTIMFGPDKCGEDYKLHFIFRHKNPKTGIYEEKHAKRPDADLKTYFTDKKTHLYTLILNPDNSFEILVDQSVVNSGNLLNDMTPPVNPSREIEDPEDRKPEDWDERPKIPDPEAVKPDDWDEDAPAKIPDEEATKPEGWLDDEPEYVPDPDAEKPEDWDEDMDGEWEAPQIANPRCESAPGCGVWQRPVIDNPNYKGKWKPPMIDNPSYQGIWKPRKIPNPDFFEDLEPFRMTPFSAIGLELWSMTSDIFFDNFIICADRRIVDDWANDGWGLKKAADGAAEPGVVGQMIEAAEERPWLWVVYILTVALPVFLVILFCCSGKKQTSGMEYKKTDAPQPDVKEEEEEKEEEKDKGDEEEEGEEKLEEKQKSDAEEDGGTVSQEEEDRKPKAEEDEILNRSPRNRKPRRE
notes: ER-resident chaperone calnexin, endogenous; source: endogenous, HeLa-CIITA, DG-75 (B) and KG-1 (dendritic-like) lysates; endogenous in fixed HeLa-CIITA cells
fold enrichment against the GFP control: 3 fold
